Columns and labels:
[1] = tested on: MDA-MB-361; assay: Potency against human tumor cell lines: MDA-MB-361; format: cell-based; conditions: MDA-MB-361, Breast
[2] = target: T1, Human PGP (MDR1) (Homo sapiens, UniProt P08183); assay: Transport by P-GP (MDR-1); format: cell-based; conditions: judged from IC50 in KB, KB-8-5, KB-V-1 cells
T1 construct: endogenous in cells; parental KB is P-GP negative
Description: Human PGP (MDR1) is an ATP-dependent efflux pump which is capable of transporting many drugs across cell membranes. High level expression of this protein has been linked to multiple drug resistance of tumors. […] The protein component of the chromoprotein probably protects the chromophore from drug efflux mediated by MDR1, and may be responsible for the beneficial antitumor effects in colon cell lines which often express MDR1.

[3] = tested on: myelin basic protein; assay: Specificity of digestion: myelin basic protein; format: biochemical
[4] = Toxicity in nude mice; format: in vivo; conditions: for Bone Marrow Necrosis, average lesion severity: 0 = WNL, 1 = slight, 2 = mild, 3 = moderate, 4 = marked, 5 = severe
Procedure: 21G792 chromoprotein is well-tolerated in nude mice. Specifically, saline control vehicle or the chromoprotein in various doses was administered intravenously to six nude mice on days 1, 5, and 9.

[5] = tested on: LoVo; assay: Potency against human tumor cell lines: LoVo; format: cell-based; conditions: Colon
[6] = tested on: Histone H1; assay: Digestion of histone H1, SDS-PAGE; format: biochemical
Procedure: Histone H1 was incubated with various concentrations of the chromoprotein in 50 mM Tris-Cl, pH 7.5 overnight at 37° C. (FIG. 20) Digestions of histone were assessed by SDS-polyacrylamide gel electrophoresis (SDS-PAGE), followed by staining of the gel with GelCode Blue (Pierce Biotechnology, Inc, Rockford, Ill.).

[7] = tested on: DLD1; assay: Potency against human tumor cell lines: DLD1; format: cell-based; conditions: DLD1, Colon
[8] = tested on: BT474; assay: Potency against human tumor cell lines: BT474; format: cell-based; conditions: BT474, Breast
[9] = tested on: p21+/+ cells; assay: Sensitivity of isogenic cell lines, p21+/+; format: cell-based, human; conditions: p21+/+ isogenic cell line; Mean ± SD, n = 3
Description: The p53/p21 checkpoint monitors the integrity of the genome and blocks cell cycle progression in the event of DNA damage. Disruption of the checkpoint by deletion of the p21 gene results in failure to arrest in response to DNA damage ultimately leading to cell death through apoptosis. Since loss of this checkpoint is a hallmark of cancer cells, an isogenic pair of cell lines, wherein one pair of the cell line (p21+/+) has an intact p21 gene and one member (p21−/−) has a deletion in the p21 gene, can be used to screen for potential anti-tumor compounds by identifying molecules that preferentially induce apoptosis in p21-deficient cells.
The Actinomadura sp. 21G792 chromoprotein was added to an isogenic pair of cell lines (p21+/+ and p21−/−).

[10] = tested on: SW620; assay: Potency against human tumor cell lines: SW620; format: cell-based; conditions: SW620, Colon
[11] = tested on: Supercoiled φX174 DNA; assay: DNA cleavage assay, gel electrophoresis; format: biochemical
Procedure: Supercoiled φX174 DNA was incubated with various concentrations of the 21G792 chromoprotein and analyzed by gel electrophoresis. […] Nicked refers to single strand breaks in the DNA and linear refers to double strand breaks.

[12] = tested on: MCF-7; assay: Potency against human tumor cell lines: MCF-7; format: cell-based; conditions: MCF-7, Breast

T1 sequence (P08183 whole entry): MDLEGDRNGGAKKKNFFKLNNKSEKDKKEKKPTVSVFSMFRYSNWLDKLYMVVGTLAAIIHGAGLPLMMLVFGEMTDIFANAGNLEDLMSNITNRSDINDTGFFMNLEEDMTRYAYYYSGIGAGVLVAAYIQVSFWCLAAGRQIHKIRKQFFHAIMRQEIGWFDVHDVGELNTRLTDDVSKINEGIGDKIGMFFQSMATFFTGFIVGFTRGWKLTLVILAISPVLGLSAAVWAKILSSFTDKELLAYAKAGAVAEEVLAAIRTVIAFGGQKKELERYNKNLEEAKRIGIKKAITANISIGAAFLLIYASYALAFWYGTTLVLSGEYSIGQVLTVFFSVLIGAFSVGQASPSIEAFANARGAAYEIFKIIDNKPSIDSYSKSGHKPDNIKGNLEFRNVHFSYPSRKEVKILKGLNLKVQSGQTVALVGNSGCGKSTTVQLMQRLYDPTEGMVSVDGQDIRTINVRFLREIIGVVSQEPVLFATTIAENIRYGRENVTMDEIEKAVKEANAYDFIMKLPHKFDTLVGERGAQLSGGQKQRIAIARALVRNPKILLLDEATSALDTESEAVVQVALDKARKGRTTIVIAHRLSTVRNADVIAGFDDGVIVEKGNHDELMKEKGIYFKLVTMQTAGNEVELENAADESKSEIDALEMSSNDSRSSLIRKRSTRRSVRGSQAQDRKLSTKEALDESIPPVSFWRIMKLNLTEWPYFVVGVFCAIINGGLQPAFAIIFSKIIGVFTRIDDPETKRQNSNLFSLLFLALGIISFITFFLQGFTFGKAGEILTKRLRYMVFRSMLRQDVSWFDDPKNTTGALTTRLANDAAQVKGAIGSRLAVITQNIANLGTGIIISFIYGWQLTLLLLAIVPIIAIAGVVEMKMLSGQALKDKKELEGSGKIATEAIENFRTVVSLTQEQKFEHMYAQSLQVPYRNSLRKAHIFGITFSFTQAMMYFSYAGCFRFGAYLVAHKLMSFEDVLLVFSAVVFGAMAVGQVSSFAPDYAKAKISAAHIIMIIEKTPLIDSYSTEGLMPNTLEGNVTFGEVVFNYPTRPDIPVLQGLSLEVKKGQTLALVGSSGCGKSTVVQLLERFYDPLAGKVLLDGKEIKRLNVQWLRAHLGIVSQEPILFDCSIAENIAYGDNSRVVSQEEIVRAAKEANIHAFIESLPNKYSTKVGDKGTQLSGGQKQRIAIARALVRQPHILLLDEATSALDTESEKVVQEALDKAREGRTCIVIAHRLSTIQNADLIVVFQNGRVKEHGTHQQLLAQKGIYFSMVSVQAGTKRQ

B1: Actinomadura sp. 21G792 chromoprotein: non-covalent complex of an apoprotein and a chromophore comprising a nine-membered enediyne, produced by Actinomadura sp. 21G792 (NRRL 30778) (protein)
chain: DTVTVNYDCVGYPSDIAVTIDAPATAGVGDTATFEVSSVVTTGAPQDLPAGEVVTDMAIVVGGAQSGTITASGLTNEATPAGQPVNMVGGEAQITFTSAGSVTFTPSTTTQVDNGAQCTVVGEAPVGATTVVS
[1]
  IC50: 5 ng/mL
[2]
  MDR1 substrate: poor MDR1 substrate
[3]
  cleavage of myelin basic protein: cleaves
[4]; 3 mg/kg
  Lymphocytes: 290 cells/μl
  WBC: 1430 cells/μl
  Bone Marrow Necrosis, average lesion severity: 1.7
[4]; 3 mg/kg i.v. days 1, 5, 9
  Bone Marrow Necrosis, number with lesion/total number examined: 6/6
[4]; 6 mg/kg
  Lymphocytes: 40 cells/μl
  WBC: 1280 cells/μl
  Bone Marrow Necrosis, average lesion severity: 3
[4]; 6 mg/kg i.v. days 1, 5, 9
  Bone Marrow Necrosis, number with lesion/total number examined: 6/6
[4]; intravenous on days 1, 5 and 9
  tolerability: well-tolerated
[4]; mouse, in vivo
  adverse effects in the intestine, nerves, spinal cord, liver, or at the site of injection: No adverse effects
[5]
  IC50: 2 ng/mL
[6]
  digestion of histone H1 on addition of DNA: inhibited by addition of DNA
[6]; 30 mM glutathione or N-acetyl cysteine
  digestion of histones on addition of free radical scavengers: inhibited by the addition of free radical scavengers
[6]; 50 mM Tris-Cl, pH 7.5 overnight at 37° C.
  digestion of histone H1: digestion of Histone H1
[6]; PMSF, Leupeptin, Aprotinin, Pepstatin A
  digestion of histones on addition of protease inhibitors: not by protease inhibitors
[7]
  IC50: 8000 ng/mL
[8]
  IC50: 47 ng/mL
[9]
  IC50: 90000 ± 32000 ng/mL
[10]
  IC50: 2 ng/mL
[11]
  need of a reducing agent (dithiothreitol, DTT) for DNA cleavage: did not require a reducing agent
[11]; various concentrations, reaction progressed over 24 hours
  DNA cleavage: induced single strand breaks and double strand breaks
[12]
  IC50: 2 ng/mL

— US20080274959A1, “Actinomadura Chromoprotein, Apoprotein and Gene Cluster” (Wyeth, priority 2004, published 2008)
